Experiments:
[1] = biological target: T1, human αvβ3 integrin ITGAVB3 (human, UniProt P06756 31-992; P05106 27-718, limits assumed); assay: phage ELISA, coated ITGAVB3, anti-M13-HRP, 490 nm
T1 construct: Recombinant heterodimer used as immunogen, ELISA coating and SPR ligand; also called A5B3; A5b3
Procedure: Further, in order to perform phage ELISA, 2.5 μg/mL to […] of a target protein and a control protein were coated at 4 degrees C. using a coating buffer, and the wells were washed 3 times with 200 μL washing buffer per well. The wells were blocked with 200 μL PBS-M for two hours at room temperature. The blocking buffer was removed and the plate was washed 6 times with the washing solution. Thereafter, 100 μL of phage solution was added to the washing buffer per well and incubation was executed at room temperature for 1 to 2 hours. Then, washing was performed 6 times with washing buffer. HRP-binding anti-M13 antibody (GE healthcare) was diluted with 1:5,000 blocking buffer. 100 μL of diluted conjugate was added onto each well, and incubation was performed at room temperature for 1 hour, and washing was carried out 6 times with washing buffer. The HRP substrate solution was prepared as follows: A stock solution of OPD was prepared by dissolving 22 mg OPD (Sigma) in 100 mL of […] sodium citrate (pH 4.0), and 36 μL 30% H₂O₂ was added to 21 mL of OPL stock solution immediately before the detection step. 100 μL of substrate solution was added to each well and incubation was performed for 30 minutes at room temperature. Plates were analyzed using a micro plate reader set at 490 nm.

[2] = biological target: T1, human αvβ3 integrin ITGAVB3; assay: SPR, αvβ3 integrin immobilised on CMDH chip, nanobody as analyte
Procedure: Specifically, a CMDH chip (Carboxymethyl Dextran Hydrogel Surface Sensor Chip, Reichert Technologies) coated with Dextran was mounted on an SPR equipment (Reichert SR7500DC system) to perform immobilization of αᵥβ₃ integrin antigen. Then, an analysis of the affinity of the selected antibody based on the concentration was performed.

[3] = biological target: T1, human αvβ3 integrin ITGAVB3; assay: ELISA of soluble VHH (TG1 lysate), induced at 37 C, coated ITGAVB3
[4] = biological target: T1, human αvβ3 integrin ITGAVB3; assay: ELISA of soluble VHH, induced at 30 C; coating not given
[5] = biological target: T1, human αvβ3 integrin ITGAVB3; assay: ELISA of soluble VHH, induced at 37 C; coating not given
[6] = biological target: T1, human αvβ3 integrin ITGAVB3; assay: ELISA of soluble VHH (TG1 lysate), induced at 30 C, coated ITGAVB3

T1 sequence (P06756 31-992 limits assumed, chain 1 of 2): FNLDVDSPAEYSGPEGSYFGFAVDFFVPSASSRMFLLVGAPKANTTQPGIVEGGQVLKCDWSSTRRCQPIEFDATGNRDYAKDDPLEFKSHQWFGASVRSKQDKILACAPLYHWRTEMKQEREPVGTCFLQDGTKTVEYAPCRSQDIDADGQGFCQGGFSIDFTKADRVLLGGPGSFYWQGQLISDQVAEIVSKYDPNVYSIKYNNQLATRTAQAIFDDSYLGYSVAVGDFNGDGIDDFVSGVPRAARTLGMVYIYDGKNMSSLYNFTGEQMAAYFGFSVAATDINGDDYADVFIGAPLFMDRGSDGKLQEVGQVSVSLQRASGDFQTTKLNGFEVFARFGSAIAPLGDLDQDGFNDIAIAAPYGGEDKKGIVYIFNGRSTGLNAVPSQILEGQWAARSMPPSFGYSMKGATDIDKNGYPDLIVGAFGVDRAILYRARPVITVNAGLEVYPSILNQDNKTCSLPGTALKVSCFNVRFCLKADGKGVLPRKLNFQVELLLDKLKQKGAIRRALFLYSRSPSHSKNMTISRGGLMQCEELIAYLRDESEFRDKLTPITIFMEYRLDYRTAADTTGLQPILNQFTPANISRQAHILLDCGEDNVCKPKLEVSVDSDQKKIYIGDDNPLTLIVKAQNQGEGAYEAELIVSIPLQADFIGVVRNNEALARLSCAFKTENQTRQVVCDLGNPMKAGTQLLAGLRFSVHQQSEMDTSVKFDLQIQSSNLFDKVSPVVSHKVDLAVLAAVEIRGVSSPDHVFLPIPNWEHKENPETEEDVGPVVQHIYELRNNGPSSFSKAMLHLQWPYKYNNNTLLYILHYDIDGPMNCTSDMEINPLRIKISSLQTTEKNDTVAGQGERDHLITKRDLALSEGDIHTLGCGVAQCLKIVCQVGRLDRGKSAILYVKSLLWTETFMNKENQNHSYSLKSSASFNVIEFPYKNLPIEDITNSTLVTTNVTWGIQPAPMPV
T1 sequence (P05106 27-718 limits assumed, chain 2 of 2): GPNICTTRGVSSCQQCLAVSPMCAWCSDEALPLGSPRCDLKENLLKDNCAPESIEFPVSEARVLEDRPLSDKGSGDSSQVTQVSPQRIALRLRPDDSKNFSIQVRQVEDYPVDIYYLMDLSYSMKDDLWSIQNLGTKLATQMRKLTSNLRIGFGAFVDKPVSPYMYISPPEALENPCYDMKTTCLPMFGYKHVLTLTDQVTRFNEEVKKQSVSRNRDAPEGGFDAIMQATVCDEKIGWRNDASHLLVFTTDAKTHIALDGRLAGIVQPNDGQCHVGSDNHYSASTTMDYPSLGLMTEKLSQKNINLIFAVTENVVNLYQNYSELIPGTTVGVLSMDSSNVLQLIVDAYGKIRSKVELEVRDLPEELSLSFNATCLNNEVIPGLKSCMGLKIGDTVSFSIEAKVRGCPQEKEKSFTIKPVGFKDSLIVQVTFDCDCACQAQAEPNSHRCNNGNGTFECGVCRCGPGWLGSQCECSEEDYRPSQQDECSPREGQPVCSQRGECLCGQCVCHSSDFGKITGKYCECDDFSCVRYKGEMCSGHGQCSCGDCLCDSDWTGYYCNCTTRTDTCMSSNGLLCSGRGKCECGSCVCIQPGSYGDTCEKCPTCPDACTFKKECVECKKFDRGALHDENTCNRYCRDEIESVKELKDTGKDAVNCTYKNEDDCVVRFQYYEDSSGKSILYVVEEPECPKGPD

| Binder | OD490 [1] | also measured |
| --- | --- | --- |
| clone 8 (VHH) VHH: DVQLVESGGGSVQPGGSLRLSCAASGYTVENSCMAWFRQAPGKEREVVATIVTNNATGTFYADSVKGRFTVSQDNAKNTLNLQMNSLEPEDTAMYYCAADTKWIVCSRGYRYTPNWANQFKYWGQGTQVTVSS | 1.95 | – |
| clone 36 (VHH) VHH: DVQLVESGGGSVQPGGSLRLSCAASGYTVENSCMAWFRQAPGKEREVVATIVTNNATGTFYADSVKGRFTVSQDNAKNTLNLQMNSLEPEDTAMYYCAADTKWIVCSRGYRYTPNWANQFKYWGQGTQVTVSS | 1.98 | – |
| clone 34 (VHH) VHH: DVQLVESGGGSVQPGGSLRLSCAASGYTVENSCMAWFRQAPGKEREVVATIVTNNATGTFYADSVKGRFTVSQDNAKNTLNLQMNSLEPEDTAMYYCAADTKWIVCSRGYRYTPNWANQFKYWGQGTQVTVSS | 2.01 | – |
| clone 38 (VHH) VHH: DVQLVESGGGSVQPGGSLRLSCAASGYTVDNSCMAWFRQAPGKEREVVATIVTNNATSTFYADSVKGRFTVSHDNAKNTLNLQMNTLEPEDTAMYYCAADTKWIVCSRGYRYTPNWANHFNYWGQGTLVTVSS | 2.12 | – |
| clone 40 (VHH) VHH: DVQLVESGGGSVQPGGSLRLSCAASGYTVDNSCMAWFRQAPGKEREVVATIVTNNATSTFYADSVKGRFTVSHDNAKNTLNLQMNTLEPEDTAMYYCAADTKWIVCSRGYRYTPNWANHFNYWGQGTLVTVSS | 2.04 | – |
| clone 30 (VHH) VHH: DVQLVESGGGSVQPGGSLRLSCAASGYTVDNSCMAWFRQAPGKEREVVATIVTNNATSTFYADSVKGRFTVSHDNAKNTLNLQMNTLEPEDTAMYYCAADTKWIVCSRGYRYTPNWANHFNYWGQGTLVTVSS | 1.97 | – |
| clone 10 (VHH) VHH: EVQLVESGGGSVQAGGSLRLSCVVSGYTCSVYDMIWYRQPPGKEREFVSLINSNGRTTYADSVKGRFTISQNNAKNTVYLQMNSLKPEDTAMYYCHAACYSPSRLNYWGQGTQVTVSS | 2.14 | – |
| single-domain antibody VHH-22 containing His6 tag (VHH, also called Nanobody #22) VHH: QVQLVESGGGSVQAGGSLRLSCVVSGYTCSVYDMIWYRQPPGKEREFVSLINSNGRTTYADSVKGRFTISQNNAKNTVYLQMNSLKPEDTAMYYCHAACYSPSRLNYWGQGTLVTVSS | – | Kd [2]: 15.5 nM; koff [2]: 0.000974 s⁻¹; kon [2]: 62700 M⁻¹ s⁻¹ |
| clone 33 (VHH) VHH: EVQLVESGGGSVQAGGSLRLSCVVSGYTCSVYDMIWYRQPPGKEREFVSLINSNGRTTYADSVKGRFTISQNNAKNTVYLQMNSLKPEDTAMYYCHAACYSPSRLNYWGQGTQVTVSS | 1.86 | – |
| single-domain antibody VHH-25 containing His6 tag (VHH, also called Nanobody #25; pALT-Avb3 VHH25 product) VHH: EVQLVESGGGSVQAGGSLRLSCVVSGYTCSVYDMIWYRQPPGKEREFVSLINSNGRTTYADSVKGRFTISQNNAKNTVYLQMNSLKPEDTAMYYCHAACYSPSRLNYWGQGTQVTVSS | – | Kd [2]: 8.83 nM; koff [2]: 0.000871 s⁻¹; kon [2]: 98600 M⁻¹ s⁻¹ |
| clone 26 (VHH) VHH: QVQLVESGGGSVQAGGSLRLSCVVSGYTCSVYDMIWYRQPPGKEREFVSLINSNGRTTYADSVKGRFTISQNNAKNTVYLQMNSLKPEDTAMYYCHAACYSPSRLNYWGQGTLVTVSS | 2.01 | – |
| clone 37 (VHH) VHH: HVQLVESGGGSVQTGGSLRLSCAASGYTSSTVYMAWFRQTPGKQREGVAAIYTGGGPTYYADSVKGRFTISQDNAKNTVYLQMNTLKPEDTAMYYCAADRYVYRLVTNWYRPSFYTYWGQGTQVTVSS | 2.09 | – |
| VHH-12 (VHH, also called clone 12) VHH: EVQLVESGGGSVQPGESLRLSCVASGYTVSSSCMAWFRQAPGKEREVVATIVVTSDTTSTFYADSVKGRFTISPDNAKNTLNLQMNSLEPSDTAMYYCAADRKWNVCSRGYRYTPNWANQFTFWGQGTQVTVSS | 2.06 | OD490 [3]: 1.93; OD490 [4]: 1.84; OD490 [5]: 1.23; OD490 [6]: 1.87 |
| clone 32 (VHH) VHH: EVQLVESGGGSVQPGESLRLSCVASGYTVSSSCMAWFRQAPGKEREVVATIVVTSDTTSTFYADSVKGRFTISPDNAKNTLNLQMNSLEPSDTAMYYCAADRKWNVCSRGYRYTPNWANQFTFWGQGTQVTVSS | 1.88 | – |
| single-domain antibody VHH-13 containing His6 tag (VHH, also called Nanobody #13) VHH: HVQLVESGGGSVQPGESLRLSCVASGYTVSSSCMAWFRQAPGKEREVVATIVVTSDTTSTFYADSVKGRFTISPDNAKNTLNLQMNSLEPSDTAMYYCAADRKWNVCSRGYRYTPNWANQFTFWGQGTQVTVSS | – | Kd [2]: 9.38 nM; koff [2]: 0.00108 s⁻¹; kon [2]: 115000 M⁻¹ s⁻¹ |
| clone 19 (VHH) VHH: EVQLVESGGGSVQPGESLRLSCVASGYTVSSSCMAWFRQAPGKEREVVATIVVTSDTTSTFYADSVKGRFTISPDNAKNTLNLQMNSLEPSDTAMYYCAADRKWNVCSRGYRYTPNWANQFTFWGQGTQVTVSS | 1.94 | – |
| clone 28 (VHH) VHH: EVQLVESGGGSVQPGESLRLSCVASGYTVSSSCMAWFRQAPGKEREVVATIVVTSDTTSTFYADSVKGRFTISPDNAKNTLNLQMNSLEPSDTAMYYCAADRKWNVCSRGYRYTPNWANQFTFWGQGTQVTVSS | 1.94 | – |
| clone 27 (VHH) VHH: HVQLVESGGGSVQPGESLRLSCVASGYTVSSSCMAWFRQAPGKEREVVATIVVTSDTTSTFYADSVKGRFTISPDNAKNTLNLQMNSLEPSDTAMYYCAADRKWNVCSRGYRYTPNWANQFTFWGQGTQVTVSS | 1.97 | – |
| clone 21 (VHH) VHH: HVQLVESGGGSVQPGESLRLSCVASGYTVSSSCMAWFRQAPGKEREVVATIVVTSDTTSTFYADSVKGRFTISPDNAKNTLNLQMNSLEPSDTAMYYCAADRKWNVCSRGYRYTPNWANQFTFWGQGTQVTVSS | 1.95 | – |
| clone 39 (VHH) VHH: EVQLVESGGGSVQPGESLRLSCVASGYTVSSSCMAWFRQAPGKEREVVATIVVTSDTTSTFYADSVKGRFTISPDNAKNTLNLQMNSLEPPDTAMYYCAADRKWNVCSRGYRYTPNWANQFTFWGQGTQVTVSS | 1.8 | – |
| clone 4 (VHH) VHH: EVQLVESGGGSVQPGESLRLSCVASGYTVSSSCMAWFRQAPGKEREVVATIVVTSDTTSTFYADSVKGRFTISPDNAKNTLNLQMNSLEPPDTAMYYCAADRKWNVCSRGYRYTPNWANQFTFWGQGTQVTVSS | 2.16 | – |
| clone 29 (VHH) VHH: DVQLVESGGGSVQPGESLRLSCVASGYTVSSSCMAWFRQAPGKEREVVATIVVTSDTTSTFYADSVKGRFTISPDNAKNTLNLQMNSLEPSDTAMYYCAADRKWNVCSRGYRYTPNWANQFTFWGQGTLVTVSS | 2.04 | – |
| clone 2 (VHH) VHH: EVQLVESGGGSVQPGESLRLSCVASGYTVSSSCMAWFRQAPGKEREVVATIVVTSDTTSTFYADSVKGRFTISPDNAKNTLNLQMNSLEPPDTAMYYCAADRKWNVCSRGYRYTPNWANQFTFWGQGTQVTVSS | 2.02 | – |
| clone 3 (VHH) VHH: EVQLVESGGGSVQPGESLRLSCVASGYTVSSSCMAWFRQAPGKEREVVATIVVTSDTTSTFYADSVKGRFTISPDNAKNTLNLQMNSLEPPDTAMYYCAADRKWNVCSRGYRYTPNWANQFTFWGQGTQVTVSS | 1.88 | – |
| clone 14 (VHH) VHH: DVQLVESGGGSVQPGESLRLSCVASGYTVSSSCMAWFRQAPGKEREVVATIVVTSDTTSTFYADSVKGRFTISPDNAKNTLNLQMNSLEPSDTAMYYCAADRKWNVCSRGYRYTPNWANQFTFWGQGTLVTVSS | 1.93 | – |

From patent US20220133913A1 (KOREA BASIC SCIENCE INSTITUTE, published 2022)
